Laboratory results as given in patent publication US20240116985A1, “STAPLED PEPTIDES AND METHODS THEREOF” (priority 2020, published 2024).
Starred links: 1 amine or outer side, 2 acyl side, 3 side chain; linkers in the order of their positions; H or OH if unused. Positions of bridges follow the written chain, without caps; N, C: chain ends. Non-standard residues stand in square brackets, D forms with d. Primed or numbered codes have the meaning given here. (CH2CMe2CO2H)TriAzDap = (S)-3-(1-(2-amino-2-carboxyethyl)-1H-1,2,3-triazol-4-yl)-2,2-dimethylpropanoic acid, CC(C)(Cc1cn(C[C@H](N[*:1])C(=O)[*:2])nn1)C(=O)[*:3]; (CMe2CO2H)TriAzDap = (S)-2-amino-3-(4-(2-carboxypropan-2-yl)-1H-1,2,3-triazol-1-yl)propanoic acid, CC(C)(C(=O)[*:3])c1cn(C[C@H](N[*:1])C(=O)[*:2])nn1; PyrS2″ = (S)-3-amino-1-((pent-4-en-1-yloxy)carbonyl)pyrrolidine-3-carboxylic acid (stapling residue), C=CCCCOC(=O)N1CC[C@@](N[*:1])(C(=O)[*:2])C1; (CH2CH2CO2H)TriAzDap = (S)-2-amino-3-(4-(2-carboxyethyl)-1H-1,2,3-triazol-1-yl)propanoic acid, O=C([C@H](Cn1cc(CCC(=O)[*:3])nn1)N[*:1])[*:2]; B5(4) = 2,2-bis(4-pentenyl)glycine = 2-amino-2-(pent-4-en-1-yl)hept-6-enoic acid (stitching residue), C=CCCCC(CCCC=C)(N[*:1])C(=O)[*:2]; B5(5) = 2,2-bis(4-pentenyl)glycine, 2-amino-2-(pent-4-en-1-yl)hept-6-enoic acid (stitching residue), C=CCCCC(CCCC=C)(N[*:1])C(=O)[*:2]; PyrS2 = (S)-3-amino-1-((pent-4-en-1-yloxy)carbonyl)pyrrolidine-3-carboxylic acid, C=CCCCOC(=O)N1CC[C@@](N[*:1])(C(=O)[*:2])C1; (3C)TriAzLys = (S)-2-amino-6-(4-propyl-1H-1,2,3-triazol-1-yl)hexanoic acid, CCCc1cn(CCCC[C@H](N[*:1])C(=O)[*:2])nn1; PyrS2(5) = (S)-3-amino-1-((alkenyloxy)carbonyl)pyrrolidine-3-carboxylic acid, carbamate stapling residue; 2COOHF = (S)-2-(2-amino-2-carboxyethyl)benzoic acid, O=C([C@H](Cc1ccccc1C(=O)[*:3])N[*:1])[*:2]; Phe(3-COOH) = N[C@@H](Cc1cccc(C(=O)O)c1)C(=O)O; 2F3MeF = Cc1cccc(C[C@H](N[*:1])C(=O)[*:2])c1F; Phe(2-CF3) = N[C@@H](Cc1ccccc1C(F)(F)F)C(=O)O; Phe(2-Cl) = N[C@@H](Cc1ccccc1Cl)C(=O)O; Bta = N[C@@H](Cc1csc2ccccc12)C(=O)O; Lys(iPr) = CC(C)NCCCC[C@H](N)C(=O)O; αAllylPro = C=CC[C@@]1(C(=O)O)CCCN1; tBuAla = CC(C)(C)C[C@H](N)C(=O)O; 3Thi = N[C@@H](Cc1ccsc1)C(=O)O; Cha = N[C@@H](CC1CCCCC1)C(=O)O; Thr(ol) = C[C@@H](O)[C@H](N)CO

Tests used:
[1] = molecular target: Bcat-Halo (UniProt P35222); assay: NanoBRET in HEK293 cells, Bcat-Halo / TCF4-Luc; absolute IC50
[2] = molecular target: full-length beta-Catenin (Uniprot ID P35222) (Homo sapiens (Human)) (UniProt P35222); assay: fluorescence polarization competition; 10 nM full-length beta-catenin, 10 nM 5FAM-TCF4(10-53) probe
Target sequence in this assay (P35222 2-781 limits assumed): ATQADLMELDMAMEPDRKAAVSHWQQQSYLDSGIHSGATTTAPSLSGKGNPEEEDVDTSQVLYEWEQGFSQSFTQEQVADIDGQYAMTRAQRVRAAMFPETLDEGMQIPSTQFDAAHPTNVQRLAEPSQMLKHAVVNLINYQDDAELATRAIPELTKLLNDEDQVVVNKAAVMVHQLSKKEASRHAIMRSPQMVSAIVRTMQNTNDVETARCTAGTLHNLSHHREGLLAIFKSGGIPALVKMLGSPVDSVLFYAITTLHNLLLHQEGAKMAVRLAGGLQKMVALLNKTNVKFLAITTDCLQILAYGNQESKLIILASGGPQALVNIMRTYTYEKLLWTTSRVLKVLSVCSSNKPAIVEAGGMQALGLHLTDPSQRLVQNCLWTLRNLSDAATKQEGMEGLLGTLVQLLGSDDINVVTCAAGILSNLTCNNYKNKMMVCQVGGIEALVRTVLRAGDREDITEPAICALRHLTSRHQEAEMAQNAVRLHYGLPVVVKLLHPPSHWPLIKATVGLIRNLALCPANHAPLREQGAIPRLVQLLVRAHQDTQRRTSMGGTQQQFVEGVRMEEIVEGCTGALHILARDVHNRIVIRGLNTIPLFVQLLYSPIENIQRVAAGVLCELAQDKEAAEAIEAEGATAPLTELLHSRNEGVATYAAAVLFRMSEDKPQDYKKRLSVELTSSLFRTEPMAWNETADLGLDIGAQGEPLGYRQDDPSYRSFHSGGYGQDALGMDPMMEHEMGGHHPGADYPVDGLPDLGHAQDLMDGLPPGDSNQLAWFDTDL

[3] = molecular target: B-cat-Halo (NanoBRET construct) (UniProt P35222); assay: NanoBRET Abs IC50; Bcat-Halo/TCF4-Luc in HEK293 cells, competitor TCF4-Luc
[4] = molecular target: full-length beta-Catenin (Uniprot ID P35222) (Homo sapiens (Human)) (UniProt P35222); assay: fluorescence polarization competition; full-length beta-catenin, 5FAM-TCF4(10-53) probe
Target sequence in this assay (P35222 whole entry, one chain of several): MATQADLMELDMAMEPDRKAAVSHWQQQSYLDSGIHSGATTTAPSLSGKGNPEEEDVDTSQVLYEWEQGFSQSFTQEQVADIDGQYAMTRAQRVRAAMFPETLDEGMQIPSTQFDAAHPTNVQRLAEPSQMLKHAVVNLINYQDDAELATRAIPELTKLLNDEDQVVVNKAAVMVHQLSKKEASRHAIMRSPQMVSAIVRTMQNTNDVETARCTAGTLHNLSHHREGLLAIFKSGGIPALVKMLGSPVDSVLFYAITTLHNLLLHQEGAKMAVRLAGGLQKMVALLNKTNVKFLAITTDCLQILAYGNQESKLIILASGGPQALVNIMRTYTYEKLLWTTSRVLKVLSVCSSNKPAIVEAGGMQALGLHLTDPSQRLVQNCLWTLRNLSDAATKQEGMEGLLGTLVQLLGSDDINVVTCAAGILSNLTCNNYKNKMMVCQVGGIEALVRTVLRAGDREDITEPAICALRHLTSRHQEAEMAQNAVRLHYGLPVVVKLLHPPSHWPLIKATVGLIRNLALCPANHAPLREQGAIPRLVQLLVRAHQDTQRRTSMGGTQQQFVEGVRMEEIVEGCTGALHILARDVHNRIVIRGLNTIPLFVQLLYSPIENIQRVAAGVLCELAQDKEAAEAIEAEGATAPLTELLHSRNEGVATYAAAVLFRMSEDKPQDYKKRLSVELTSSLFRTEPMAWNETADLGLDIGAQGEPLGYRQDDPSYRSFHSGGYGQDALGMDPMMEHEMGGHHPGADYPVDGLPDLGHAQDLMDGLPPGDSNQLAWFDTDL

[5] = molecular target: Bcat-Halo (UniProt P35222); assay: NanoBRET Abs IC50, HEK293 cells, B-cat-Halo / TCF4-Luc engagement
[6] = molecular target: full-length beta-Catenin (Uniprot ID P35222) (Homo sapiens (Human)) (UniProt P35222); assay: fluorescence polarization competition against 5FAM-TCF4 10-53 on full-length beta-catenin
Target sequence in this assay (P35222 whole entry, one chain of several): as above

Chain of B-cat-Halo (NanoBRET construct) (P35222 whole entry): as the sequence (P35222 whole entry, one chain of several) above
Chain of Bcat-Halo (P35222 whole entry): as the sequence (P35222 whole entry, one chain of several) above

| Binder | IC50 [3] [µM] | IC50 [4] [nM] | IC50 [5] [µM] | IC50 [6] [nM] | other results |
| --- | --- | --- | --- | --- | --- |
| Ac-[αAllylPro]N[Cha][B5(4)]DQ[Lys(iPr)]AFL[PyrS2]F[Bta]Q-NH2 (staple 1-4, 4-11) [I-1648] |  |  |  |  | IC50 [1]: > 20 µM; IC50 [2]: 191 nM |
| Ac-[αAllylPro]D[tBuAla][B5(5)]D[2COOHF]AAFF[PyrS2″][2F3MeF][Bta]Q-NH2 (staple 1-4, 4-11) [I-1655] |  |  |  |  | IC50 [1]: 12.7 µM; IC50 [2]: 48 nM |
| Ac-[αAllylPro]D[tBuAla][B5(5)]D[2COOHF]AAFF[PyrS2″][Phe(2-Cl)][Bta]Q-NH2 (staple 1-4, 4-11) [I-1657] |  |  |  |  | IC50 [1]: 11 µM; IC50 [2]: 36 nM |
| Ac-[αAllylPro]D[tBuAla][B5(5)]D[2COOHF]AAFF[PyrS2″][2F3MeF][Bta]S-NH2 (staple 1-4, 4-11) [I-1659] |  |  |  |  | IC50 [1]: 11.4 µM; IC50 [2]: 108 nM |
| Ac-[αAllylPro]D[tBuAla][B5(5)]D[2COOHF]AAFF[PyrS2″][Phe(2-Cl)][Bta]S-NH2 (staple 1-4, 4-11) [I-1662] | 12 | 69 |  |  |  |
| Ac-[αAllylPro]D[tBuAla][B5(5)]D[2COOHF]AAFF[PyrS2″][3Thi][Bta]S-NH2 (staple 1-4, 4-11) [I-1664] | 8 | 22 |  |  |  |
| Ac-[αAllylPro]D[tBuAla][B5(5)]D[2COOHF]AAFF[PyrS2″][3Thi][Bta]S-NH2 (staple 1-4, 4-11) [I-1665] | 9.7 | 17 |  |  |  |
| Ac-[αAllylPro]D[tBuAla][B5(5)]D[2COOHF]AAFF[PyrS2″][3Thi][Bta][Thr(ol)] (staple 1-4, 4-11; also: staple isomer, earlier-eluting HPLC peak) [I-1668] | 16.4 | 29 |  |  |  |
| Ac-[αAllylPro]D[tBuAla][B5(5)]D[2COOHF]AAFF[PyrS2(5)][3Thi][Bta][Thr(ol)] (staple 1-4, 4-11; also: staple isomer, later-eluting HPLC peak) [I-1669] | 11.8 | 30 |  |  |  |
| Ac-[αAllylPro]D[tBuAla][B5(4)]D[(CH2CH2CO2H)TriAzDap]QAFL[PyrS2″][Phe(2-CF3)][Bta]A-NH2 (staple 1-4, 4-11) [I-2367] |  |  | 6.2 | 7 |  |
| Ac-[αAllylPro]D[tBuAla][B5(4)]D[(CH2CMe2CO2H)TriAzDap]QAFL[PyrS2″][Phe(2-CF3)][Bta]A-NH2 (staple 1-4, 4-11) [I-2368] |  |  | 5 | 5 |  |
| Ac-[αAllylPro]D[tBuAla][B5(4)]D[(CMe2CO2H)TriAzDap]QAFL[PyrS2″][Phe(2-CF3)][Bta]A-NH2 (staple 1-4, 4-11) [I-2369] |  |  | 9.5 | 14 |  |
| Ac-[αAllylPro]D[tBuAla][B5(4)]DDAAFL[PyrS2″][3Thi][Bta][(3C)TriAzLys]-NH2 (staple 1-4, 4-11) [I-2375] |  |  | 13.5 | 5 |  |
| Ac-[αAllylPro]D[tBuAla][B5(5)]D[Phe(3-COOH)]AAFL[PyrS2″][Phe(2-CF3)][Bta]QLV-NH2 (staple 1-4, 4-11) [I-2379] |  |  | 5 | 246 |  |
